This note sets out measurements from IntAct's records for PubMed 25910212.

B1: Mothers against decapentaplegic homolog 3 (Homo sapiens), P84022 (parent)
chain: MSSILPFTPPIVKRLLGWKKGEQNGQEEKWCEKAVKSLVKKLKKTGQLDELEKAITTQNVNTKCITIPRSLDGRLQVSHRKGLPHVIYCRLWRWPDLHSHHELRAMELCEFAFNMKKDEVCVNPYHYQRVETPVLPPVLVPRHTEIPAEFPPLDDYSHSIPENTNFPAGIEPQSNIPETPPPGYLSEDGETSDHQMNHSMDAGSPNLSPNPMSPAHNNLDLQPVTYCEPAFWCSISYYELNQRVGETFHASQPSMTVDGFTDPSNSERFCLGLLSNVNRNAAVELTRRHIGRGVRLYYIGGEVFAECLSDSAIFVQSPNCNQRYGWHPATVCKIPPGCNLKIFNNQEFAALLAQSVNQGFEAVYQLTRMCTIRMSFVKGWGAEYRRQTVTSTPCWIELHLNGPLQWLDKVLTQMGSPSIRCSSVS
partner: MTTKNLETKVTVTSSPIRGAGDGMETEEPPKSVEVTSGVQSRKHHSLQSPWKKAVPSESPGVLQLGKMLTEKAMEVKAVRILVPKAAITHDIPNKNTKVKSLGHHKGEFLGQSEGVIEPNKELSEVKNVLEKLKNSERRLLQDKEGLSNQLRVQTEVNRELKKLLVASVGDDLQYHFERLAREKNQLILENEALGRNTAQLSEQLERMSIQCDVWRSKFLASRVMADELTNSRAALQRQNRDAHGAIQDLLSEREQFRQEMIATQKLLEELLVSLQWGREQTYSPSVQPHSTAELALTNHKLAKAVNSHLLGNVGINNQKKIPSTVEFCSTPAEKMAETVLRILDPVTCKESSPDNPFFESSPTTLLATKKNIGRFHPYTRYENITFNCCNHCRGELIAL
B2: TERF1-interacting nuclear factor 2 (Homo sapiens), Q9BSI4 (parent)
chain: MATPLVAGPAALRFAAAASWQVVRGRCVEHFPRVLEFLRSLRAVAPGLVRYRHHERLCMGLKAKVVVELILQGRPWAQVLKALNHHFPESGPIVRDPKATKQDLRKILEAQETFYQQVKQLSEAPVDLASKLQELEQEYGEPFLAAMEKLLFEYLCQLEKALPTPQAQQLQDVLSWMQPGVSITSSLAWRQYGVDMGWLLPECSVTDSVNLAEPMEQNPPQQQRLALHNPLPKAKPGTHLPQGPSSRTHPEPLAGRHFNLAPLGRRRVQSQWASTRGGHKERPTVMLFPFRNLGSPTQVISKPESKEEHAIYTADLAMGTRAASTGKSKSPCQTLGGRALKENPVDLPATEQKENCLDCYMDPLRLSLLPPRARKPVCPPSLCSSVITIGDLVLDSDEEENGQGEGKESLENYQKTKFDTLIPTLCEYLPPSGHGAIPVSSCDCRDSSRPL
B3: Dual specificity protein phosphatase 23 (Homo sapiens), Q9BVJ7 (parent)
chain: MGVQPPNFSWVLPGRLAGLALPRLPAHYQFLLDLGVRHLVSLTERGPPHSDSCPGLTLHRLRIPDFCPPAPDQIDRFVQIVDEANARGEAVGVHCALGFGRTGTMLACYLVKERGLAAGDAIAEIRRLRPGSIETYEQEKAVFQFYQRTK
B4: ATP synthase mitochondrial F1 complex assembly factor 2 (Homo sapiens), Q8N5M1 (parent)
chain: MWRSCLRLRDGGRRLLNRPAGGPSASMSPGPTIPSPARAYAPPTERKRFYQNVSITQGEGGFEINLDHRKLKTPQAKLFTVPSEALAIAVATEWDSQQDTIKYYTMHLTTLCNTSLDNPTQRNKDQLIRAAVKFLDTDTICYRVEEPETLVELQRNEWDPIIEWAEKRYGVEISSSTSIMGPSIPAKTREVLVSHLASYNTWALQGIEFVAAQLKSMVLTLGLIDLRLTVEQAVLLSRLEEEYQIQKWGNIEWAHDYELQELRARTAAGTLFIHLCSESTTVKHKLLKE
partner: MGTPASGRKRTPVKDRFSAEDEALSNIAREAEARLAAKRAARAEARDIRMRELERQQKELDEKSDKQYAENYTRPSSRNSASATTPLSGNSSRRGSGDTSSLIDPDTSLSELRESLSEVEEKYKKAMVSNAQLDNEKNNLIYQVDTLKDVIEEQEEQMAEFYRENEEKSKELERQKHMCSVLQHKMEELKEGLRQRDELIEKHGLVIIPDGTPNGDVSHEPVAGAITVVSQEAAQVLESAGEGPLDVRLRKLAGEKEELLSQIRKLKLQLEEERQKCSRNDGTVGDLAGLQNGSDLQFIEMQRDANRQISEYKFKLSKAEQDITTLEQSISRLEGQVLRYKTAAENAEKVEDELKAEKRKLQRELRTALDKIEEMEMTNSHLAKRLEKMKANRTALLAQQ
B5: Carbonic anhydrase-related protein (Homo sapiens), P35219 (parent)
chain: MADLSFIEDTVAFPEKEEDEEEEEEGVEWGYEEGVEWGLVFPDANGEYQSPINLNSREARYDPSLLDVRLSPNYVVCRDCEVTNDGHTIQVILKSKSVLSGGPLPQGHEFELYEVRFHWGRENQRGSEHTVNFKAFPMELHLIHWNSTLFGSIDEAVGKPHGIAIIALFVQIGKEHVGLKAVTEILQDIQYKGKSKTIPCFNPNTLLPDPLLRDYWVYEGSLTIPPCSEGVTWILFRYPLTISQLQIEEFRRLRTHVKGAELVEGCDGILGDNFRPTQPLSDRVIRAAFQ
partner: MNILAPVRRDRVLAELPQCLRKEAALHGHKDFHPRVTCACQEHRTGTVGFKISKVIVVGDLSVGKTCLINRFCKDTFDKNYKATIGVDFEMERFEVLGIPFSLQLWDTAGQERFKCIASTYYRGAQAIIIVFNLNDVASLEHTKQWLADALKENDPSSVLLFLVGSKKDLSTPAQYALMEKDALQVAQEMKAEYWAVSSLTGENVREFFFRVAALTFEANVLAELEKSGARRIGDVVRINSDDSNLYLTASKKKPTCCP
B6: Pigment epithelium-derived factor (Homo sapiens), P36955 (parent)
chain: MQALVLLLCIGALLGHSSCQNPASPPEEGSPDPDSTGALVEEEDPFFKVPVNKLAAAVSNFGYDLYRVRSSTSPTTNVLLSPLSVATALSALSLGAEQRTESIIHRALYYDLISSPDIHGTYKELLDTVTAPQKNLKSASRIVFEKKLRIKSSFVAPLEKSYGTRPRVLTGNPRLDLQEINNWVQAQMKGKLARSTKEIPDEISILLLGVAHFKGQWVTKFDSRKTSLEDFYLDEERTVRVPMMSDPKAVLRYGLDSDLSCKIAQLPLTGSMSIIFFLPLKVTQNLTLIEESLTSEFIHDIDRELKTVQAVLTVPKLKLSYEGEVTKSLQEMKLQSLFDSPDFSKITGKPIKLTQVEHRAGFEWNEDGAGTTPSPGLQPAHLTFPLDYHLNQPFIFVLRDTDTGALLFIGKILDPRGP
partner: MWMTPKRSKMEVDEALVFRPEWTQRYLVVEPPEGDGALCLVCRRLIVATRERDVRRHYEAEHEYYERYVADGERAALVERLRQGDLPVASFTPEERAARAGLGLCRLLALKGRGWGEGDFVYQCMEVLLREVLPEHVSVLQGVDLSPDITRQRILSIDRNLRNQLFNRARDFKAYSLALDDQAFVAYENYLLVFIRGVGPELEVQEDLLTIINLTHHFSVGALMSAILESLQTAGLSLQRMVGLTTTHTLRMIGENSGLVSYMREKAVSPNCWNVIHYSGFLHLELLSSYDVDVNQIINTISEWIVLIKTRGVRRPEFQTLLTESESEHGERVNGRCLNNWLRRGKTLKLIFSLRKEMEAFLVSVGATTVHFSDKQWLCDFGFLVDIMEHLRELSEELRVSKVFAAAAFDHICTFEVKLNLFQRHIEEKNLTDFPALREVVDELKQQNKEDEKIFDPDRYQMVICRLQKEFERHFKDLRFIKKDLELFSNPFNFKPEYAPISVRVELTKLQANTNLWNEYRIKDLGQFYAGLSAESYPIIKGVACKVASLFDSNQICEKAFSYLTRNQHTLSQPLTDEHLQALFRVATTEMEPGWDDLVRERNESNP
B7: Beta-crystallin A4 (Homo sapiens), P53673 (parent)
chain: MTLQCTKSAGPWKMVVWDEDGFQGRRHEFTAECPSVLELGFETVRSLKVLSGAWVGFEHAGFQGQQYILERGEYPSWDAWGGNTAYPAERLTSFRPAACANHRDSRLTIFEQENFLGKKGELSDDYPSLQAMGWEGNEVGSFHVHSGAWVCSQFPGYRGFQYVLECDHHSGDYKHFREWGSHAPTFQVQSIRRIQQ
partner: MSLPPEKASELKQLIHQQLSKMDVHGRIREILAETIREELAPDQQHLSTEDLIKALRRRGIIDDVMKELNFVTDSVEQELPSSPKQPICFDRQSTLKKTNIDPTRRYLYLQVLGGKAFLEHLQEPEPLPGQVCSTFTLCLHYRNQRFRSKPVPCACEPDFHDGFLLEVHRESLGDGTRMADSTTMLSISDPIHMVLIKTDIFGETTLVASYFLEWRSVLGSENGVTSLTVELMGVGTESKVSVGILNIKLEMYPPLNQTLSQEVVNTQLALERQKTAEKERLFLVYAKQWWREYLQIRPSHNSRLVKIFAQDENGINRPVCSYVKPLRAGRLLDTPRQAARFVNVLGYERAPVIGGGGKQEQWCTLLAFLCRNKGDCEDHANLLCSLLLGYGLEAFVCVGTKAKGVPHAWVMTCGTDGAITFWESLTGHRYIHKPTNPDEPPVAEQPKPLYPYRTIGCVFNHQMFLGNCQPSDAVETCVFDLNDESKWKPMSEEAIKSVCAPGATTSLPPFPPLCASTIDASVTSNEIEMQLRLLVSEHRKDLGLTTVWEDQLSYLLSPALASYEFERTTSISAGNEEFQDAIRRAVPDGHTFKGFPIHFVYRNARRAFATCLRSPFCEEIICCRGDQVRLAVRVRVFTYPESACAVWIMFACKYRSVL

One test covers variants of B1. The note with it: with go45_human BLZF1, Q9H2G9.
Consider N197I, for which the “effect of a mutation on the interaction” value is listed as “with no effect”.

Variants of B2 are the subject of the next test. The settings on record: with acd_human ACD.
On to S245Y, for which the “effect of a mutation on the interaction” value is “with no effect”.

For the variant E281K, the “effect of a mutation on the interaction” value was “with no effect”. For G237D, the “effect of a mutation on the interaction” value was “with no effect”.

In a further test the parent is B3. The note with it: with exos8_human EXOSC8, Q96B26.
Sequence of exos8_human EXOSC8, Q96B26 (Q96B26 whole entry): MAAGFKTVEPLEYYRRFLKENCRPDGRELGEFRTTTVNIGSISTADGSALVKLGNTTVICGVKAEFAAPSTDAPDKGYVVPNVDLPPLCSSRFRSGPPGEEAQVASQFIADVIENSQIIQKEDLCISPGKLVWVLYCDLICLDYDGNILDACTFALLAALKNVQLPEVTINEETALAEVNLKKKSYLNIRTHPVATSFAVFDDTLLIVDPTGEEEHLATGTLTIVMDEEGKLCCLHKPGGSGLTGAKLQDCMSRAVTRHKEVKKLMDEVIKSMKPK
Regarding G131S, the “effect of a mutation on the interaction” value was “with no effect”.

The variants in another test derive from B4. The settings on record: with LRRFIP2, Q9Y608-2.
Regarding W94R, the “effect of a mutation on the interaction” value is given as “disrupting interaction strength”.

Variants of B5 are the subject of a further test. The note with it: with rab34_human RAB34, Q9BZG1.
As to S100P, the “effect of a mutation on the interaction” value is recorded as “disrupting interaction strength”.

In another test the parent is B6. The settings on record: with epmip_human EPM2AIP1, Q7L775.
Regarding T72M, the “effect of a mutation on the interaction” value is reported as “with no effect”.

The variants in the next test derive from B7. The settings on record: with cep76_human CEP76, Q8TAP6.
With F94S, the “effect of a mutation on the interaction” value is reported as “disrupting interaction strength”. As to L69P, the “effect of a mutation on the interaction” value was “disrupting interaction strength”. For the variant V36M, the “effect of a mutation on the interaction” value was “disrupting interaction strength”.
